{"source": "the DeepSol protein solubility set", "data": [{"assay": "soluble on expression in E. coli; label from the status in PepcDB or PDB records", "values": [{"sequence": "MSLRRVFMKQIEGGICAVRGVSAYGIKPGKMGIAVIRAEGPAAGVFTRNKVVAAPVTLSRERIETEHRLSAVIANSGNANAFTGDDGFLDAMEMASMVAENLGLDPDNVAVASTGVIGRRLDVSFIKEHLPEVLEGLGSSPECSRAAAKAIMTTDRALKESAVELDCGVRIGAIAKGSGMIEPNMGTMLCFAYTDAKVPADVLDAALKIAVDKTFNMVVVDGDTSTNDMVLFTSTCKSGVKPCLDCLDDFEEGLVCVFTDLAKKMAKDGEGATKLIEARVTGAKKYEDARLVAKTIVRSPLVKSAIFGKDPNWGRVVAAAGYSGAELEQERLTLSFSGGGEEVELVKAGEISTASDLSLLKKIMANDEIIINLDLAMGEESATAWGCDLTYDYVRINAEYTTLEHHHHHH", "soluble on expression in E. coli": "not soluble"}, {"sequence": "MGHHHHHHSHALQVDISDALSERDKVKFTVHTKSSLPNFKQNEFSVVRQHEEFIWLHDSFVENEDYAGYIIPPAPPRPDFDASREKLQKLGEGEGSMTKEEFTKMKQELEAEYLAIFKKTVAMHEVFLCRVAAHPILRRDLNFHVFLEYNQDLSVRGKNKKEKLEDFFKNMVKSADGVIVSGVKDVDDFFEHERTFLLEYHNRVKDASAKSDRMTRSHKSAADDYNRIGSSLYALGT", "soluble on expression in E. coli": "not soluble"}, {"sequence": "LIIGVTGCPAGIAHTYLAAEALEKGAAALGFEIKVETNGSIGVKNSPSAEEIERAEAIVVACDKQVDMARFAGKRLIKTNVKAPIRDAQKLINEALRAPTY", "soluble on expression in E. coli": "not soluble"}, {"sequence": "MGSDKIHHHHHHKDDADAPLRFYDSKYEVPMGGRRYLGIESGNGDYSLEIGNPRIASAGIESGWSGVPAGRMIYISGILTGSTYLKVTDNATQETLTLPIKVVDYYEDLNLIHGSSSLRPNGDENLLPGVDDIFLVSNAARDAYFFKQGQRTAFSSGLELITKGTYALKQEDENKATLTLTFSLDASPATEHHFTVWGNTYLLHRLDKNLHLNWGTPPIGETRTSPAPPPAYTLEEITEGAEPGTGRQVGFILNYKEIPTGILP", "soluble on expression in E. coli": "not soluble"}, {"sequence": "MFLKAGESKTVTIDLDERAFAYWSEKYNDWHVEAGEYAIEVGVSSRDIADTVAVALDGDGKTQPLTEWSTYGEWEADPFGAKIVAAVAAAGEAGELTKLPDNAMMRMFLNPMPINSLPTLLGEGGKKIAQFMVDEYAKLAK", "soluble on expression in E. coli": "not soluble"}, {"sequence": "MGSDKIHHHHHHMSNKKLIINADDFGYTPAVTQGIIEAHKRGVVTSTTALPTSPYFLEAMESARISAPTLAIGVHLTLTLNQAKPILPREMVPSLVDEAGYFWHQSIFEEKVNLEEVYNEWDAQIISFMKSGRRPDHIDSHHNVHGKNKKLLGVALALARKYQLPLRNASRSIETKDYLELYQDVRTPDEMLYQFYDKAISTETILQLLDMVVCSEGEVFEINCHPAFIDTILQNQSGYCMPRIREVEILTSQEVKEAIEERGILLANYESLAM", "soluble on expression in E. coli": "not soluble"}, {"sequence": "QVQLVQSGAEVRKPGASVKVSCKASGDTFSSYAISWVRQAPGQGLEWMGGIIPIFGTANYAQAFQGRVTITANESTSTAYMELSSLRSEDTAIYYCARDNPTLLGSDYWGAGTLVTVSSASTKGPSVFPLAPCSRSTSGGTAALGCLVKDYFPEPVTVSWNSGALTSGVHTFPAVLQSSGLYSLSSVVTVPSSSLGTQTYICNVNHKPSNTKVDKRV", "soluble on expression in E. coli": "soluble"}, {"sequence": "MTATEPTEKILPSPDYVQSLARGLAVIRCFDHRNQRRTLSDVARATDLTRATARRFLLTLVELGYVATDGSAFWLTPRVLELGYSYLSSLSLPEVAQPHLEKLSHKVHESSSVSILDGADIVYVARVPVSRIMTVGITIGTRLPAYATSMGRVLLAGLPDDELDAYLEKLDIQRLTERTITARDELKAAILAVRADGICVLDQELEAGLRSMAAPIRGASGLTVAAVNISTPAARYSLEDLHSDLIPSLRVTATDIEQDLATVNR", "soluble on expression in E. coli": "soluble"}, {"sequence": "MVRVKRSQLREGCVLAEDVLGKTKRPIIPKNTVITKPLLLVLEKFLVEEVDVEPLLANGEPFPNVDSASTAAAKQPMAFYLEAVQRYKTWFQSWQAGLPVDIGEIRGVIISLFERMAGQKRELLMLHHYATKDEYLHHHAVSVGLLAGFLAMQLGYSEGECHQIALAGVLADCGMAKVSKRILTNPSALTEAEFNEVKQHPVFSYRMVQKIPALNHGAKLAVLQHHERNDGSGYPLGVKAERIHPYSQIVAVADVYHAMTSERLYRRKQSPFRAIETMQREQFGKLSTEAVAALVNNLIGLQTGAVVKLSNGEMAEVMFIPSDEPARPIVKIIETGQLLSLSVQRDIYIEEMVQG", "soluble on expression in E. coli": "not soluble"}, {"sequence": "GSDPGPEAARLRFRCFHYEEATGPQEALAQLRELCRQWLRPEVRSKEQMLELLVLEQFLGALPPEIQARVQGQRPGSPEEAAALVDGLRREPGG", "soluble on expression in E. coli": "soluble"}, {"sequence": "MGSDKIHHHHHHEETRTEVEKKNYMNNAEEAKDVLLGVYRTNTLDAMYGYYLSILFNLGTDISQVEGSGNENFRIIPTNSFPTTQSEVQQTWAALYTGIYRANDFLERISNKIGSYTTTDKKLATLYIAEARALRGMFYFELVRRFGNVVLMTSTQMSNQNPATYVQSAPEKVYEYIEDDLLYACDILPYATDDQYRESNDYRFSKGAALGLLTKVYATWAGYPVKDESKWEAAAKTARILVESGKHGLLKDYEQLWKNTCNGTWDPTESLIEISFYSPTVSGNSDPVGRIGKWNGVKTTAIAGVRGSCAANVKVVHTFVLDWREDVSDIRRDLSIANYQYTDTKKSLWVAGASDTDESAAEKDADPTKAQKNKQNYTPAKWDIQKYVTTNSFINNDKSNVNWYFLRYADVLLLYAEALNEWKHGPDAEAYNAINAVRRRGYGNPSNTSACDLPQGLDETSFREAVRKERSYELSFEGHRRQDLIRWGIYYKTVQATAKELGYWWEGTGSPNYSVATYTEEGKHELFPIPQRDMDLCIQFNQNPKW", "soluble on expression in E. coli": "not soluble"}, {"sequence": "MSGDRDDPRYPYPKDDAELRRRLTPMQYEVTQHAATEPPFTGEYTDTEDAGIYHCVVCGTALFESGAKYHSGCGWPSYFKPIDGEVIDEKMDYTHGMTRVEVRCNQCGAHLGHVFEDGPRDKTGLRYCINSAALNFEAKPERK", "soluble on expression in E. coli": "not soluble"}, {"sequence": "MEHEQHSSINDILHHYKEGIGSFTNQIPEIAETYNAFTQACFQEGALTKREKQLIALGISLATQDEYCTIYHTKGCLDQGCSDKEILEACGVSAAFAGGAAMSQAVTLVQECLTELKNQKH", "soluble on expression in E. coli": "not soluble"}, {"sequence": "MSLAAPLTVGFSQVGSESGWRAAETNVAKSEAEKRGITLKIADGQQKQENQIKAVRSFVAQGVDAIFIAPVVATGWEPVLKEAKDAEIPVFLLDRSIDVKDKSLYMTTVTADNILEGKLIGDWLVKEVNGKPCNVVELQGTVGASVAIDRKKGFAEAIRNAPNIKIIRSQSGDFTRSKGKEVMESFIKAENNGKNICMVYAHNDDMVIGAIQAIKEAGLKPGKDILTGSIDGVPDIYKAMIDGEANASVELTPNMAGPAFDALEKYKKDGTMPEKLTLTKSTLYLPDTAKEELEKKKNMGYEGHHHHHH", "soluble on expression in E. coli": "soluble"}, {"sequence": "MESIFHEKQEGSLCAQHCLNNLLQGEYFSPVELSSIAHQLDEEERMRMAEGGVTSEDYRTFLQQPSGNMDDSGFFSIQVISNALKVWGLELILFNSPEYQRLRIDPINERSFICNYKEHWFTVRKLGKQWFNLNSLLTGPELISDTYLALFLAQLQQEGYSIFVVKGDLPDCEADQLLQMIR", "soluble on expression in E. coli": "soluble"}, {"sequence": "MSLKAVTQCSQFFHEVSLPHLKPETTYYYRIPAANGTTESDILSFTTARAPGDKRSFTVAVLNDMGYTNAQGTHRQLLKAANEGAAFAWHGGDLSYADDWFSGILPCADDWPVCYNGTSTQLPGGGPIPEEYKQPLPQGETANQGGPQGGDMSVLYESNWDLWQQWMTNLTVKIPHMVMPGNHESACAEFDGPGNPITAYLNEGIPNGTWPAENLTYYSCPPSQRNFTAFQHRFHMPGKETGGVGNFWYSFDYGLAHFVSLDGETDFANSPFSTFERDLTGNETHPRPEETETTDSGPFGTIDGDRYDDNTAYAQYQWLKRDLASVDRTKTPWVFVMSHRPMYSSAYSSYQTNVRNAFENLLLQYGVDAYLSGHIHWYERMFPMTANGTIDESSIADNHTYTTNSGKSMTHIINGMAGNIESHSWFDEGEGLTEITAKLDRTHFGFSKLTVVNETVVNWEFVKGDDGSTGDWLTLVKGETCTINEGHHHHHH", "soluble on expression in E. coli": "not soluble"}, {"sequence": "MHADLVIVGAGMVGSALALALEGSGLEVLLVDGGSLDVAPFKPEAPYEPRVSALSEASRRILQRLHAWDGIVARRAEPYREMQVWDGSGTGRIGFSAASVHAEVLGHIVENRVVQDALLERLHDSTTGLLANARLEQMRHSGDDWLLTLADGRQLRAPLVVAADGANSAVRRLAGCATREWDYLHHAIVTSVRCENAHRATAWQRFTDDGPLAFLPLPDRGDEHWCSIVWSTTPEQAERLMALDEDGFRAALGEAFEQRLGAILHADRRLCIPLRQRHAKRYVEPGLALVGDAAHTIHPLAGQGVNLGFLDAAVLSEVLLHALERGERLADERVLSRFERRRMPHNLGMMTAMEGFERLFQADRLPLRWLRNAGLRLVDGHHEAKALFVRQALGLSGDLPMLARVLEHHHHHH", "soluble on expression in E. coli": "soluble"}, {"sequence": "MKPPICRRMSLPPVLAKKEGERIQVPEGGELVCYRNQEDQHLFLKIEYSRETMIKLSSSVFCYARPTGLKEVSDELPELLGLPHSIPLTDSPPNFECLPEPLAHVSGCNSHFSMNHPPPLLSPLRGPVTEADEAMRTLSSHRELQKRLQNMSMRGELSPSGCLVDSCDTPAIRQIRNPQFT", "soluble on expression in E. coli": "not soluble"}, {"sequence": "MSLSGSDYCFSTLGCSELSLHETADLTERHGIANVELRALSGTIDLIAALTAEFGTPARFAAFLSERNLRVAALNTSMRLFGSDSLSEIEPFIDWAEAANIAYLRIFDGGKKIGPEDLDRSAALLDNWQAVRQTRGLNVDLMIETHDALSDFEQLLTFIEQVPAARILWDTHHTWAKGSNLKMVWRQIERNVVHLHVKDSVMDSDRERRYVLPGQGEFPISELLSLILPNERQIPLSLEWERHWHPQLPPLADALKAAHSWWRQGVSEGHHHHHH", "soluble on expression in E. coli": "soluble"}, {"sequence": "MAGDPMRKSKLTFIATFLILLFLSMPYKAHAASQTPITRADAEQRALTMINLNWTYSKSKNGVLPSAYSGSITAPSQFRGIENVVATGIPYCWGGFDGLNSSSYGESWTNFTDAVNKGAFVGNVKSSSYGHITGTAGLDCSGFVQATFNIKDYKLSTSTIFNQYFTKIDIKDIKHMDILNLPGNHVVIFDKWGTRNGVNGAYTYEATPDTTYGGIQGTKQYFMSMNTVSQYIPGRYVNIKEVAYVQVINASSLNIRTGPSTSYPIIGTISQNQIAEVTGYSSDGTWYKIKINGIEGYASSTYLTYVNNLEHHHHHH", "soluble on expression in E. coli": "not soluble"}, {"sequence": "MINMKALVGGIILPVSSPPIKNGVLLFDEESGKIVAVGKKEEVTIPEDAEIIEAPGKYISPGFVDAHSHIGMIPDGLEWEFQEANDFYSPIAPHLRAVDGFDPYDEAFKEAIAGGVTTVATGPGSANVMGGIGLLAKTYEEGFEKIIKPEAFIKMALGPKRPREYKSKYPYPTTRMGTVALMRTWFKRAREFMEGKIKTDNIDEEEIEMLRLLARALKREIQVKIHLSTSPDEIYAAIRIIKEFNLNATIDHAFGSQLVADMLSREGIPVIYGPPMITRIASFFRYVDDKAPVLLFKKGVNVSIMTDHPVLPEKHLRLLAAVVARNGLSLDDALKLITINPAKALGIDRFVGSLEPGKDADIVISSDHPIKPTSKIEIVFGRGREVYKAD", "soluble on expression in E. coli": "soluble"}, {"sequence": "MAKRQQRSNKPSSEYTCLGHLVNLIPGKEQKVEITNRNVTTIGRSRSCDVILSEPDISTFHAEFHLLQMDVDNFQRNLINVIDKSRNGTFINGNRLVKKDYILKNGDRIVFGKSCSFLFKYASSSSTDIENDDEKVSSESRSYRSHHHHHH", "soluble on expression in E. coli": "soluble"}]}]}
